# Experimental data: patent US20030186281A1, “Modified tetracycline repressor protein compositions and methods of use” (priority 2001, published 2003)
# Residue numbers refer to the chain shown, from its start. Names may count otherwise.
# B1: TetRrevAD2/5: revTetR(BD) L17F L55L L60F R62V (protein)
# chain: MSRLDKSKVINSALELFNEVGIEGLTTRKLAQKLGVEQPTLYWHVKNKRALLDALAVEIFAVHHDYSLPAAGESWQSFLRNNAMSFRRALLRYRDGAKVHLGTRPDEKQYDTVETQLRFMTENGFSLRDGLYAISAVSHFTLGAVLEQQEHTAALTDRPAAPDENLPPLLREALQIMDSDDGEQAFLHGLESLIRGFEVQLTALLQIV
# modifications: Modified tetracycline repressor
# notes: revTetR(BD) L17F L55L L60F R62V
# B2: TetRrev96/99-8: revTetR(BD) G96N V99H (protein)
# chain: B1 chain with F17L, F60L, V62R, G96N, V99H
# modifications: Modified tetracycline repressor
# notes: revTetR(BD) G96N V99H
# B3: TetRrev96/99-2: revTetR(BD) G99K V99A (protein)
# chain: B1 chain with F17L, F60L, V62R, G96K, V99A
# modifications: Modified tetracycline repressor
# notes: revTetR(BD) G99K V99A
# B4: TetRrevAF5/1: revTetR(BD) L14F D95A V99G (protein)
# chain: B1 chain with L14F, F17L, F60L, V62R, D95A, V99G
# modifications: Modified tetracycline repressor
# notes: revTetR(BD) L14F D95A V99G
# B5: TetRrevAtc4-14: revTetR(BD) L51L D53Q V57V E58K L60L A61V R62P H63D (protein)
# chain: B1 chain with F17L, D53Q, E58K, F60L, A61V, V62P, H63D
# modifications: Modified tetracycline repressor
# notes: revTetR(BD) L51L D53Q V57V E58K L60L A61V R62P H63D
# B6: TetRrev96/99-1: revTetR(BD) G96H V99R (protein)
# chain: B1 chain with F17L, F60L, V62R, G96H, V99R
# modifications: Modified tetracycline repressor
# notes: revTetR(BD) G96H V99R
# B7: TetRrev96/99-6: revTetR(BD) G96N V99Q (protein)
# chain: B1 chain with F17L, F60L, V62R, G96N, V99Q
# modifications: Modified tetracycline repressor
# notes: revTetR(BD) G96N V99Q
# B8: TetRrevAF5/5: revTetR(BD) L14V L17F V20A I22M L25F D95H (protein)
# chain: B1 chain with L14V, V20A, I22M, L25F, F60L, V62R, D95H
# modifications: Modified tetracycline repressor
# notes: revTetR(BD) L14V L17F V20A I22M L25F D95H
# B9: TetRrevAF5/13: revTetR(BD) L14L V20G V99E (protein)
# chain: B1 chain with F17L, V20G, F60L, V62R, V99E
# modifications: Modified tetracycline repressor
# notes: revTetR(BD) L14L V20G V99E
# B10: TetRrevAD2/8: revTetR(BD) V20G D53N A54A A56G V57L I59F L60L R62R (protein)
# chain: B1 chain with F17L, V20G, D53N, A56G, V57L, I59F, V62R
# modifications: Modified tetracycline repressor
# notes: revTetR(BD) V20G D53N A54A A56G V57L I59F L60L R62R
# B11: TetRrevAF6/1: revTetR(BD) A13A E19V V20A D95I G96G (protein)
# chain: B1 chain with F17L, E19V, V20A, F60L, V62R, D95I
# modifications: Modified tetracycline repressor
# notes: revTetR(BD) A13A E19V V20A D95I G96G
# B12: TetRrevAD2/1: revTetR(BD) G21G L51L D53Y L55L A56P A61E (protein)
# chain: B1 chain with F17L, E19G, D53Y, A56P, F60L, A61E, V62R
# modifications: Modified tetracycline repressor
# notes: revTetR(BD) G21G L51L D53Y L55L A56P A61E
# B13: TetRrev96/99-4: revTetR(BD) G96P V99S (protein)
# chain: B1 chain with F17L, F60L, V62R, G96P, V99S
# modifications: Modified tetracycline repressor
# notes: revTetR(BD) G96P V99S
# B14: TetRrev96/99-7: revTetR(BD) G96L V99K (protein)
# chain: B1 chain with F17L, F60L, V62R, G96L, V99K
# modifications: Modified tetracycline repressor
# notes: revTetR(BD) G96L V99K
# B15: TetRrev96/99-5: revTetR(BD) G96I V99K (protein)
# chain: B1 chain with F17L, F60L, V62R, G96I, V99K
# modifications: Modified tetracycline repressor
# notes: revTetR(BD) G96I V99K
# B16: TetRrev96/99-3: revTetR(BD) G96E V99T (protein)
# chain: B1 chain with F17L, F60L, V62R, G96E, V99T
# modifications: Modified tetracycline repressor
# notes: revTetR(BD) G96E V99T
# B17: TetRrevAF6/5: revTetR(BD) V20V I22V E23D D95N H100P (protein)
# chain: B1 chain with F17L, I22V, E23D, F60L, V62R, D95N, H100P
# modifications: Modified tetracycline repressor
# notes: revTetR(BD) V20V I22V E23D D95N H100P
# B18: TetRrevAF5/3: revTetR(BD) E15G N18K R94H G96G G102V (protein)
# chain: B1 chain with E15G, F17L, N18K, F60L, V62R, R94H, G102V
# modifications: Modified tetracycline repressor
# notes: revTetR(BD) E15G N18K R94H G96G G102V
# B19: TetRrevAtc4-16: revTetR(BD) D53N A54G V57F I59S L60F (protein)
# chain: B1 chain with F17L, D53N, A54G, V57F, I59S, V62R
# modifications: Modified tetracycline repressor
# notes: revTetR(BD) D53N A54G V57F I59S L60F
# B20: TetRrevAF4/13: revTetR(BD) A13A E15D L17L E19V I22I E23K R94H G95N (protein)
# chain: B1 chain with E15D, F17L, E19V, E23K, F60L, V62R, R94H, D95N
# modifications: Modified tetracycline repressor
# notes: revTetR(BD) A13A E15D L17L E19V I22I E23K R94H G95N
# Test system: tet operator sequence
# Assay: β-galactosidase activity of a tetracycline-regulated promoter in transformed E. coli with revTetR, in the presence and absence of anhydrotetracycline (atc)
# Assay type: cell-based, Escherichia coli
# Conditions: RevTetR isolate cultured in the absence of anhydrotetracycline (ATC)
# Protocol: The relative activity of revTetR repressors was determined at 28° C. and 37° C. for each clone by measuring β-galactosidase activity of a tetracycline-regulated promoter in transformed Escherichia coli in the presence and absence of the tetracycline analog, anhydrotetracycline (atc). The relative β-galactosidase activity was measured in standard Miller units and is presented as the percent of maximal expression as measured in the absence of Tet repressor. […] With respect to each mutant, as well as the wild-type controls, FIG. 2 provides two horizontal bars; the upper horizontal bar represents the level of β-galactosidase activity in the absence of anhydrotetracycline (−atc) while the lower horizontal bar represents the level of β-galactosidase activity in the presence of anhydrotetracycline (+atc).
# The pool of mutated Tet repressors was cloned into plasmid pWH1411 (Baumeister et al., 1992, Proteins: Struct. Funct. Genet. 14: 168-77), which carries a TetR(B) gene, to provide a TetR(BD) chimera that included, as the amino-terminal portion, amino acid residues 1 to 50 of the TetR(B) gene and, as the carboxyl-terminal portion, amino acid residues 51 to 208 of the TetR(D) gene. The resulting plasmid pool was screened in a genetic assay which positively selects for a functional interaction between a Tet repressor and its cognate operator using E. coli strain WH207(λWH25) (the construction of this strain is described in detail in Wissmann et al., (1991) Genetics 128: 225-32). In this E. coli strain, tet operators direct the expression of divergently arranged β-galactosidase (lacZ) and Lac repressor (lacI) genes and the lac regulatory region directs the expression of a galactokinase (galK) gene on plasmid pWH414. Binding of Tet repressors to tet operators turns off transcription of the lacI and lacZ genes. The absence of Lac repressor allows for expression of the galK gene, which enables the E. coli strain to use galactose as a sole carbon source, which serves as one marker. The lacZ^− phenotype serves as a second marker. Thus, bacteria containing Tet repressors which bind to tet operators, have a Gal^+, lacZ^− phenotype. Bacteria containing wild-type Tet repressors have a Gal^+, lacZ^− phenotype in the absence of tetracycline. Modified “reverse” Tet repressors (revTetR) were selected based upon a Gal^+, lacZ^− phenotype in the presence of tetracycline.
# The ability of each revTetR clone to bind to its cognate tet operator sequence and regulate transcription in a prokaryotic organism, Escherichia coli, in the presence and absence of a tetracycline analog (anhydrotetracycline, atc) was determined (Table 3, FIG. 2). The relative ratios of non-repressed to repressed levels of transcription for the 15 clones range from about 1.4-fold to about 50-fold at 28° C. and from about 1.3-fold to 40-fold at 37° C. For example, clone 4b comprising an amino acid substitution of glutamic acid for glycine at position 96 (e.g., SEQ ID NO. 24) repressed transcription 19-fold at 37° C. but to a less extent at 28° C. (5.7-fold, Table 3). Furthermore, clones 14, 5a and 7 comprising the arginine for glycine substitution at position 96 and further comprising a substitution or substitutions of serine for threonine at position 103 and valine for glutamic acid at position 114; leucine for proline at position 159; or glutamine to histidine at position 188, respectively, have pronouncedly different activities.
# wherein each underlined base was present in approximately 85% of the oligonucleotides, while the remaining approximately 15% of the oligonucleotides contained one of the other three, non-wild type bases at that position. Similar mutagenic, partially randomized oligonucleotides were prepared for mutagenesis of the coding regions for amino acids 14-25 and 93-102. It was predicted that, according to a binomial distribution, each oligonucleotide would contain three to four mutations. […]
row,Molecule,"β-Galactosidase Activity, Cultured Without ATC"
1,B1,50.466
2,B2,103.657
3,B3,94.5832
4,B4,100.053
5,B5,62.985
6,B6,58.4545
7,B7,103.602
8,B8,100.546
9,B9,105.942
10,B10,73.8584
11,B11,72.8186
12,B12,34.2242
13,B13,109.291
14,B14,55.0127
15,B15,57.8391
16,B16,103.749
17,B17,102.848
18,B18,58.5651
19,B19,104.174
20,B20,98.8886

# Same assay, conditions: RevTetR isolate cultured in the presence of anhydrotetracycline (ATC)
row,Molecule,"β-Galactosidase Activity, Cultured With ATC"
1,B1,1.4141
2,B2,24.309
3,B3,31.604
4,B4,1.072
5,B5,25.025
6,B6,25.484
7,B7,28.364
8,B8,1.6948
9,B9,4.4642
10,B10,1.8468
11,B11,3.7966
12,B12,1.17
13,B13,32.997
14,B14,13.224
15,B15,17.087
16,B16,31.808
17,B17,2.8572
18,B18,1.8337
19,B19,16.914
20,B20,2.5827
